Source: US20220193132A1

How the values were obtained:
[1] = target: recombinant human wild type EGFR protein (extracellular domain), native (human) (UniProt P00533); experiment: ELISA Exp 1, mAb supernatant
[2] = target: recombinant human wild type EGFR protein (extracellular domain), denatured (human) (UniProt P00533); experiment: ELISA Exp 1, mAb supernatant
[3] = target: recombinant human EGFRvIII protein (extracellular domain), native (human) (UniProt P00533); experiment: ELISA Exp 1, mAb supernatant
[4] = target: recombinant human EGFRvIII protein (extracellular domain), denatured (human) (UniProt P00533); experiment: ELISA Exp 1, mAb supernatant
[5] = target: recombinant human wild type EGFR protein (extracellular domain), native (human) (UniProt P00533); experiment: ELISA Exp 2, purified mAb 1 ug/ml
[6] = target: recombinant human EGFRvIII protein (extracellular domain), native (human) (UniProt P00533); experiment: ELISA Exp 2, purified mAb 1 ug/ml
[7] = target: recombinant human EGFRvIII protein (extracellular domain), denatured (human) (UniProt P00533); experiment: ELISA Exp 2, purified mAb 1 ug/ml
[8] = target: wild type human EGFR, full length, overexpressed on U87MG cells (human) (UniProt P00533); experiment: cell-based or functional assay
[9] = target: EGFRvIII, full length, overexpressed on glioblastoma cells (human) (UniProt P00533); experiment: cell-based or functional assay
[10] = target: EGFRvIII, full length, overexpressed on glioblastoma cells (human) (UniProt P00533); experiment: flow cytometry dose-response on U87MG-EGFRvIII cells, apparent Kd
[11] = target: wild type human EGFR, full length, overexpressed on U87MG cells (human) (UniProt P00533); experiment: flow cytometry dose-response on U87MG-EGFRwt cells, apparent Kd
[12] = target: recombinant human wild type EGFR protein (extracellular domain), denatured (human) (UniProt P00533); experiment: ELISA Exp 2, purified mAb 1 ug/ml

Q: How did the ELISA absorbance 405 nm [1] turn out when 225 mAb (ATCC HB-8508) (antibody) was run?
A: Its ELISA absorbance 405 nm is 1.2 A405.

Q: What about the ELISA absorbance 405 nm [2] of the same substance?
A: The ELISA absorbance 405 nm was -0.01 A405.

Q: What about the ELISA absorbance 405 nm [3] of the same substance?
A: The ELISA absorbance 405 nm was 1.08 A405.

Q: What about the ELISA absorbance 405 nm [4] of the same substance?
A: The ELISA absorbance 405 nm was 0.001 A405.

Q: What about the ELISA absorbance 405 nm [5] of the same substance?
A: Its ELISA absorbance 405 nm is 1.32 A405.

Q: And the ELISA absorbance 405 nm [6]?
A: Its ELISA absorbance 405 nm is 1.5 A405.

Q: What about the ELISA absorbance 405 nm [7] of the same substance?
A: Its ELISA absorbance 405 nm is 0.004 A405.

Q: What about the % internalization (pHrodo surrogate assay, vs 225 mAb) [8] of the same substance?
A: Its % internalization (pHrodo surrogate assay, vs 225 mAb) is 101%.

Q: And the % survival (DM1 secondary-conjugate ADC surrogate assay, vs mouse IgG) [8]?
A: Its % survival (DM1 secondary-conjugate ADC surrogate assay, vs mouse IgG) is 52%.

Q: And the % internalization (pHrodo surrogate assay, vs 225 mAb) [9]?
A: The % internalization (pHrodo surrogate assay, vs 225 mAb) was 100%.

Q: What about the % survival (DM1 secondary-conjugate ADC surrogate assay, vs mouse IgG) [9] of the same substance?
A: Its % survival (DM1 secondary-conjugate ADC surrogate assay, vs mouse IgG) is 49%.

Q: And the Kd [10]?
A: Its Kd is 2.2 nM.

Q: And the Kd [11]?
A: The Kd was 2.2 nM.

Q: Which ELISA absorbance 405 nm [12] does the source give for Neg ctrl mouse mAb (antibody) here?
A: The ELISA absorbance 405 nm was 0 A405.

Q: What about the ELISA absorbance 405 nm [6] of the same substance?
A: Its ELISA absorbance 405 nm is -0.001 A405.

Q: And the % survival (DM1 secondary-conjugate ADC surrogate assay, vs mouse IgG) [8]?
A: Its % survival (DM1 secondary-conjugate ADC surrogate assay, vs mouse IgG) is greater than 98%.

Q: What about the % survival (DM1 secondary-conjugate ADC surrogate assay, vs mouse IgG) [9] of the same substance?
A: Its % survival (DM1 secondary-conjugate ADC surrogate assay, vs mouse IgG) is greater than 98%.

Q: Neg ctrl mIgG (antibody) was tested. Which % internalization (pHrodo surrogate assay, vs 225 mAb) [9] did it give?
A: The % internalization (pHrodo surrogate assay, vs 225 mAb) was less than 3%.
